Experimental data published in US12723243B2, “Archaeal pyrrolysyl tRNA synthetases for orthogonal use” (European Molecular Biology Laboratory, priority 2016, dated 2026).

Test system: mCherry-GFP^Y39TAG amber suppression reporter
Experiment: Amber suppression in baculovirus-transduced Sf21 insect cells, flow cytometry
Format: cell-based, Spodoptera frugiperda
Experimental: Following standard protocols, insect cells of line Sf21 were cultured in a protein-free, serum-free standard culture medium for Spodoptera frugiperda cells (Sf-900™ III SFM) at 27° C. shaking at 180 rpm. The Sf21 cells were split every day to a density of 0.6×10^6 cells/ml or every third day to a density of 0.3×10^6 cells/ml.
Baculovirus shuttle vector (Bacmid) DNA containing an expression cassette encoding tRNA^Pyl, mCherry-GFP^Y39TAG and either PylRS^AF or NES-PylRS^AF was prepared using standard cloning and recombination procedures.
For transfection 3 ml/well of 0.3×10^6 Sf21 cells/ml were seeded in a 6-well cell culture multidish (Nunclon Delta Surface, Thermo scientific) and transfected with Bacmid DNA using a nonliposomal transfection reagent (FuGENE®HD Transfection Reagent, Promega) following the manufacturer's instructions. V0-virus was harvested 70 h post transfection and the V1-generation was started. Therefor, 25 ml Sf21 cells at 0.6×10^6 cells/ml were transfected with 3 ml of the Vo-virus. After cell proliferation stopped, the cultures were kept for another 48-60 h at 27° C. shaking at 180 rpm. The transfected cells were harvested by centrifugation (500 rpm, 10 min) and the supernatant (i.e., the V1-Virus) was stored at 4° C.
5-25 ml Sf21 cells at 0.6×10^6 cells/ml were transduced with V1-virus prepared by method (I) at a ratio of 100:1 vol/vol (cells:virus). One day afterwards, different amounts of UAA 1 (0-1 mM final concentration) was added to the cultures. After three days of culture, the cells were harvested by centrifugation (500 rpm, 10 min), cooled down to 4° C., resuspended in 2 ml sterile 1×PBS, filtered through a cell strainer (Falcon, 70 μm, Fisher Scientific) and kept on ice until analysis. Data for 500,000 cells of each sample was acquired and analyzed using a LSRFortessa SORP Cell Analyzer (Becton, Dickinson and Company) and the FlowJo software (FlowJo Enterprise). Cells were gated first by cell type (using FSC-A×SSC-A parameters) and then by single cell (FSC-A×SSC-W). GFP fluorescence was acquired in the 488-530/30 channel and mCherry fluorescence in the 561-610/20 channel.
Sf21 cells were transduced with Bacmid DNA encoding tRNA^Pyl, mCherry-GFP^Y39TAG, and either PylRS^AF or NES-PylRS^AF, cultured with different concentrations (0, 10, 50, 100, 250, 500 or 1000 μM) of UAA 1 (BOC) and analyzed using methods (I) and (J) described herein.
mCherry fluorescence of the cells indicated successful transduction with Bacmid DNA. GFP fluorescence of the cells indicated successful suppression of the amber stop codon encoding amino acid position 39 of the GFP^Y39TAG reporter gene by incorporation of UAA 1 at said position.

B1: PylRS^AF: mutant M. mazei pyrrolysyl tRNA synthetase comprising amino acid substitutions Y306A and Y384F, SEQ ID NO:2 (protein)
chain: MDKKPLNTLISATGLWMSRTGTIHKIKHHEVSRSKIYIEMACGDHLVVNNSRSSRTARALRHHKYRKTCKRCRVSDEDLNKFLTKANEDQTSVKVKVVSAPTRTKKAMPKSVARAPKPLENTEAAQAQPSGSKFSPAIPVSTQESVSVPASVSTSISSISTGATASALVKGNTNPITSMSAPVQASAPALTKSQTDRLEVLLNPKDEISLNSGKPFRELESELLSRRKKDLQQIYAEERENYLGKLEREITRFFVDRGFLEIKSPILIPLEYIERMGIDNDTELSKQIFRVDKNFCLRPMLAPNLANYLRKLDRALPDPIKIFEIGPCYRKESDGKEHLEEFTMLNFCQMGSGCTRENLESIITDFLNHLGIDFKIVGDSCMVFGDTLDVMHGDLELSSAVVGPIPLDREWGIDKPWIGAGFGLERLLKVKHDFKNIKRAARSESYYNGISTNL
modifications: Methanosarcina mazei PylRS Y306A, Y384F mutant; MUTAGEN 306 Y306A mutation; MUTAGEN 384 Y384F mutation
- Cells showing both mCherry and GFP fluorescence (Sf21, UAA 1 conc. 0 μM): 1.4%
- Cells showing only mCherry fluorescence (Sf21, UAA 1 conc. 0 μM): 94.6%
- Cells showing both mCherry and GFP fluorescence (Sf21, UAA 1 conc. 10 μM): 20.1%
- Cells showing only mCherry fluorescence (Sf21, UAA 1 conc. 10 μM): 75.8%
- Cells showing both mCherry and GFP fluorescence (Sf21, UAA 1 conc. 50 μM): 56.2%
- Cells showing only mCherry fluorescence (Sf21, UAA 1 conc. 50 μM): 39.3%
- Cells showing both mCherry and GFP fluorescence (Sf21, UAA 1 conc. 100 μM): 67.1%
- Cells showing only mCherry fluorescence (Sf21, UAA 1 conc. 100 μM): 25.9%
- Cells showing both mCherry and GFP fluorescence (Sf21, UAA 1 conc. 250 μM): 76.5%
- Cells showing only mCherry fluorescence (Sf21, UAA 1 conc. 250 μM): 13.9%
- Cells showing both mCherry and GFP fluorescence (Sf21, UAA 1 conc. 500 μM): 81.6%
- Cells showing only mCherry fluorescence (Sf21, UAA 1 conc. 500 μM): 9.1%
- Cells showing both mCherry and GFP fluorescence (Sf21, UAA 1 conc. 1000 μM): 85.8%
- Cells showing only mCherry fluorescence (Sf21, UAA 1 conc. 1000 μM): 5.7%
